We go through 16 molecules from patent US20240150447A1 (CEPHALON, published 2024).

Residue numbers refer to the chain shown, from its start. Names may count otherwise.

In assay [1] the target is T1, human FcRn protein (human, UniProt P55899 24-297, limits assumed).
T1 construct: source and construct not described; also called hFcRn; FCGRT
Nature of the assay: SPR, Ab on Protein L chip, hFcRn in flow, pH 6.0. As for the experimental part:
(§1) The interaction between human immunoglobulin proteins and FcRn is known to be affected by the pH of their environment solution. To test whether this pH-dependent interaction correlates with the quantity of antibody variants in the brain parenchyma after in vivo administration, the affinity of certain variants towards FcRn were screened at pH 6.0 and pH 7.4 on a Biacore T200 system (GE Healthcare). All experiments were conducted at 25′ C. Antibodies were expressed and purified using the Expi293 expression system as described in Example 1. Cells were transfected with a heavy chain comprising the variable region of the 04 antibody used in Example 2 [SEQ ID NO: 1] fused to a heavy chain region bearing the indicated substitution in Table 11 and a light chain from Ab6 [SEQ TD NO: 24]. Although the CH sequences listed in Table 11 include the terminal lysine (K447), this terminal lysine was truncated during the cloning process for each of these variants for the purposes of this experiment. Antibody proteins were captured at a flow rate of 10 μL/min on a Protein L chip to a surface density of approximately 100 RU. Experiments conducted at pH 7.4 were conducted in PBST (1.06 mMKH2PO4, 155.17 mM7NaCl, 2.97 mM 4Na2PO4-7H2O, and 0.005 Tween-20). […] The antibody-FcRn complex was allowed to dissociate for 20 s before the chip was regenerated with 10 mM glycine pH 1.7. On-rates (ka) and off-rates (kd) were estimated by the best fit to a one-to-one Langmuir binding model by simultaneous fitting of the association and dissociation sensograms. The dissociation constant (KD) for FcRn binding was then calculated as the ratio of the off rate to the on rate (kd/ka).
A general note: SPR reads the build-up and loss of mass on a sensor chip optically.

Assay [2] deals with T1, human FcRn protein. Nature of the assay: SPR, Ab on Protein L chip, hFcRn in flow, pH 7.4. As for the experimental part: as §1

T1 sequence (P55899 24-297 limits assumed, chain 1 of 2): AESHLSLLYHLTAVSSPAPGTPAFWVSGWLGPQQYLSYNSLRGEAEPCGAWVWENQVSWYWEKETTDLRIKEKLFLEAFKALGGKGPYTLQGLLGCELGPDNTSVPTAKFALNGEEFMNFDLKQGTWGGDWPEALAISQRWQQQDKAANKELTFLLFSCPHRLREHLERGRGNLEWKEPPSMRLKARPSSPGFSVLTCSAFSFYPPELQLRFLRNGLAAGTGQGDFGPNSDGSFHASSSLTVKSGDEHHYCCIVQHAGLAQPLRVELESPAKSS
T1 sequence (chain, as listed by the source limits assumed, chain 2 of 2): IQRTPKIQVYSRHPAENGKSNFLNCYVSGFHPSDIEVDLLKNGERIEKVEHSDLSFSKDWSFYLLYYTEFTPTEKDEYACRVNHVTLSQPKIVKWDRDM

B1: hIgG1 M252Y/S254T/T256E/N434W, O4 VH with Ab6 light chain (antibody)
heavy: QVQLRQSGPGLVQPSQSLSITCTVSGFSLTSYGVHWFRQSPGKGLEWLGVIWSGGSTDYNAAFISRLSISKDNSKSQVFFKMNSLQANDTAIYYCARNRGRYNYYAMDYWGQGTSVTVSSASTKGPSVFPLAPSSKSTSGGTAALGCLVKDYFPEPVTVSWNSGALTSGVHTFPAVLQSSGLYSLSSVVTVPSSSLGTQTYICNVNHKPSNTKVDKKVEPKSCDKTHTCPPCPAPELLGGPSVFLFPPKPKDTLYITREPEVTCVVVDVSHEDPEVKFNWYVDGVEVHNAKTKPREEQYNSTYRVVSVLTVLHQDWLNGKEYKCKVSNKALPAPIEKTISKAKGQPREPQVYTLPPSRDELTKNQVSLTCLVKGFYPSDIAVEWESNGQPENNYKTTPPVLDSDGSFFLYSKLTVDKSRWQQGNVFSCSVMHEALHWHYTQKSLSLSPG
light: not shown
notes: hIgG1
Take B1: in the assay with human FcRn protein [1], the dissociation constant Kd (in general, the concentration at which binding is half-saturated) stood at 4.38 nM; the koff (as a rule, the rate constant with which the complex falls apart) is 0.00655 s⁻¹; the kon (commonly the second-order rate constant of association) is 1.49e+06 M⁻¹ s⁻¹.

B2: hIgG1 M252Y/V308P/N434Y, O4 VH with Ab6 light chain (antibody)
heavy: B1 heavy with T257S, E259T, V311P, W437Y
light: not shown
notes: hIgG1
In the assay with human FcRn protein [1], B2 registered a Kd of 1.51 nM, a koff of 0.00242 s⁻¹ and a kon of 1.61e+06 M⁻¹ s⁻¹. Besides, in the assay with human FcRn protein [2], the Kd turned out to be 10300 nM, the koff was determined as 0.748 s⁻¹ and the kon came out at 72600 M⁻¹ s⁻¹.

B3: hIgG1 M252Y/T256S/V308P/N434W, O4 VH with Ab6 light chain (antibody)
heavy: B1 heavy with T257S, E259S, V311P
light: not shown
notes: hIgG1
In the assay with human FcRn protein [1], B3 showed a Kd of 1.23 nM, a koff of 0.00186 s⁻¹ and a kon of 1.52e+06 M⁻¹ s⁻¹. For the same molecule, in the assay with human FcRn protein [2], binding was characterised by a dissociation constant (Kd) of 84.5 nM, the koff worked out at 0.0564 s⁻¹ and the kon was 668000 M⁻¹ s⁻¹.

B4: hIgG1 M252Y/T256R/V308P/N434W, O4 VH with Ab6 light chain (antibody)
heavy: B1 heavy with T257S, E259R, V311P
light: not shown
notes: hIgG1
In the assay with human FcRn protein [1], B4 showed a Kd of 0.433 nM, a koff of 0.001 s⁻¹ and a kon of 2.31e+06 M⁻¹ s⁻¹.

B5: hIgG1 M252Y/T256V/V308P/N434W, O4 VH with Ab6 light chain (antibody)
heavy: B1 heavy with T257S, E259V, V311P
light: not shown
notes: hIgG1
For the molecule B5, in the assay with human FcRn protein [1], the dissociation constant (Kd) turned out to be 1.87 nM, the koff is 0.0024 s⁻¹ and the kon was determined as 1.29e+06 M⁻¹ s⁻¹. In the assay with human FcRn protein [2], the affinity, expressed as Kd, was 68.7 nM; the koff was 0.0327 s⁻¹; the kon stood at 476000 M⁻¹ s⁻¹.

B6: hIgG1 M252Y/T256H/V308P/N434W, O4 VH with Ab6 light chain (antibody)
heavy: B1 heavy with T257S, E259H, V311P
light: not shown
notes: hIgG1
In the assay with human FcRn protein [1], B6 came in with a Kd of 2.2 nM, a koff of 0.00228 s⁻¹ and a kon of 1.04e+06 M⁻¹ s⁻¹. Further, in the assay with human FcRn protein [2], the Kd turned out to be 103 nM, the koff was found to be 0.19 s⁻¹ and the kon is 1.82e+06 M⁻¹ s⁻¹.

B7: hIgG1 M252Y/T256D/V308P/N434W, O4 VH with Ab6 light chain (antibody)
heavy: B1 heavy with T257S, E259D, V311P
light: not shown
notes: hIgG1
In the assay with human FcRn protein [1], B7 had a Kd of 1.19 nM, a koff of 0.00211 s⁻¹ and a kon of 1.77e+06 M⁻¹ s⁻¹. In the assay with human FcRn protein [2], this molecule had a Kd of 52.1 nM, a koff of 0.0338 s⁻¹ and a kon of 650000 M⁻¹ s⁻¹.

B8: hIgG1 M252Y/T256E/V308P/N434W, O4 VH with Ab6 light chain (antibody)
heavy: B1 heavy with T257S, V311P
light: not shown
notes: hIgG1
In the assay with human FcRn protein [1], B8 registered a Kd of 0.744 nM, an off-rate constant (koff) of 0.00128 s⁻¹ and a kon of 1.71e+06 M⁻¹ s⁻¹. Besides, in the assay with human FcRn protein [2], binding was put at a Kd of 70.2 nM, the koff stood at 0.0341 s⁻¹ and the kon stood at 486000 M⁻¹ s⁻¹.

B9: hIgG1 M252Y/T256Y/V308P/N434W, O4 VH with Ab6 light chain (antibody)
heavy: B1 heavy with T257S, E259Y, V311P
light: not shown
notes: hIgG1
Regarding B9, in the assay with human FcRn protein [1], the Kd stood at 0.754 nM, the koff is 0.00112 s⁻¹ and the kon came out at 1.49e+06 M⁻¹ s⁻¹. In the assay with human FcRn protein [2], this molecule had a Kd of 202 nM, a koff of 0.08 s⁻¹ and a kon of 395000 M⁻¹ s⁻¹.

B10: hIgG1 M252Y/T256V/V308P/N434F, O4 VH with Ab6 light chain (antibody)
heavy: B1 heavy with T257S, E259V, V311P, W437F
light: not shown
notes: hIgG1
In the case of B10, in the assay with human FcRn protein [1], binding was put at a Kd of 1.25 nM, the koff stood at 0.00139 s⁻¹ and the kon was determined as 1.11e+06 M⁻¹ s⁻¹. In the assay with human FcRn protein [2], this molecule displayed a Kd of 202 nM, a koff of 0.2 s⁻¹ and a kon of 977000 M⁻¹ s⁻¹.

B11: hIgG1 M252Y/T256P/V308P/N434W, O4 VH with Ab6 light chain (antibody)
heavy: B1 heavy with T257S, E259P, V311P
light: not shown
notes: hIgG1
B11: in the assay with human FcRn protein [1], the Kd was found to be 0.0414 nM, the koff worked out at 3.83e-05 s⁻¹ and the kon is 927000 M⁻¹ s⁻¹. In the assay with human FcRn protein [2], this molecule returned a Kd of 49.8 nM, a koff of 0.02 s⁻¹ and a kon of 442000 M⁻¹ s⁻¹.

B12: hIgG1 M252Y/T256M/V308P/N434W, O4 VH with Ab6 light chain (antibody)
heavy: B1 heavy with T257S, E259M, V311P
light: not shown
notes: hIgG1
In the assay with human FcRn protein [1], B12 gave a Kd of 0.828 nM, a koff of 0.00125 s⁻¹ and a kon of 1.51e+06 M⁻¹ s⁻¹. For the same molecule, in the assay with human FcRn protein [2], the affinity, expressed as Kd, was 37.2 nM; the koff was 0.28 s⁻¹; the kon amounted to 7.62e+06 M⁻¹ s⁻¹.

B13: hIgG1 M252Y/V308P/N434W, O4 VH with Ab6 light chain (antibody)
heavy: B1 heavy with T257S, E259T, V311P
light: not shown
notes: hIgG1
In the assay with human FcRn protein [1], B13 came in with a Kd of 0.767 nM, a koff of 0.00124 s⁻¹ and a kon of 1.62e+06 M⁻¹ s⁻¹. Also, in the assay with human FcRn protein [2], the affinity, expressed as Kd, was 730000 nM; the koff was 3.11 s⁻¹; the kon turned out to be 4260 M⁻¹ s⁻¹.

B14: hIgG1 M252Y/T256L/V308P/N434W, O4 VH with Ab6 light chain (antibody)
heavy: B1 heavy with T257S, E259L, V311P
light: not shown
notes: hIgG1
In the assay with human FcRn protein [1], B14 returned a Kd of 2.85 nM, a koff of 0.00351 s⁻¹ and a kon of 1.23e+06 M⁻¹ s⁻¹. Besides, in the assay with human FcRn protein [2], the Kd was 137 nM, the koff was determined as 0.0868 s⁻¹ and the kon amounted to 634000 M⁻¹ s⁻¹.

B15: hIgG1 P257A/V308P/M428L/N434Y, O4 VH with Ab6 light chain (antibody)
heavy: B1 heavy with Y255M, T257S, E259T, P260A, V311P, M431L, W437Y
light: not shown
notes: hIgG1
As to B15, in the assay with human FcRn protein [1], the Kd was 4.26 nM, the koff turned out to be 0.00706 s⁻¹ and the kon was found to be 1.66e+06 M⁻¹ s⁻¹. In the assay with human FcRn protein [2], this molecule gave a Kd of 239 nM, a koff of 0.0545 s⁻¹ and a kon of 228000 M⁻¹ s⁻¹.

B16: hIgG1 M252Y/T256A/V308P/N434W, O4 VH with Ab6 light chain (antibody)
heavy: B1 heavy with T257S, E259A, V311P
light: not shown
notes: hIgG1
Take B16: in the assay with human FcRn protein [1], the Kd stood at 0.426 nM, the koff worked out at 0.000815 s⁻¹ and the kon worked out at 1.91e+06 M⁻¹ s⁻¹. In the assay with human FcRn protein [2], this molecule registered a Kd of 90.1 nM, a koff of 0.08 s⁻¹ and a kon of 893000 M⁻¹ s⁻¹.
